From US20240075137A1 come the findings set out here.

As a reminder, the IC50 is the point on the concentration scale where inhibition reaches its midpoint. A higher IC50 goes with weaker potency in that assay. Usually Kd stands for the equilibrium constant for the complex coming apart.

The target of test [1] is mouse PVRIG on cells (mouse). Description: FACS, NK cells, 10 ug/ml vs isotype. On the technique in general: In flow cytometry, cells or beads pass a laser one at a time.
Test [2] deals with mouse PVRIG on cells (mouse). Description: FACS, D10.G4.1 cells vs isotype.
Test [3] concerns the target mouse PVRIG-Fc fusion protein (mouse). Put plainly: blocking of mPVRIG-Fc (029-Fc) binding to mPVRL2 over-expressing cells.
Test [4] concerns the target mouse PVRIG on cells (mouse). Description: FACS, HEK293 mPVRIG over-expressing vs empty vector cells, 10 ug/ml.
Test [5] concerns the target mouse PVRIG on cells (mouse). Description: FACS titration, HEK293 mPVRIG over-expressing cells.
In test [6] the target is mouse PVRIG on cells (mouse). Put plainly: FACS titration, D10.G4.1 cells.

B1: AB-407 (antibody, V domains shown)
VH: QVQLQQSGAELAKPGSSVMISCKASGYTFTNYAVHWIKQTTGQALEWTGYIAPGSGVTKYNEKFKGKATLTVDKSSTTAYMQLSSLTPVDTAVYYCASGTTRFAYWGQGTLVTVSS
VL: DIVLTQSPALAVSLGQRATISCRASQSVSLSSYNLMQWYQQKPGQEPKILIYDASNLPSGIPARFSGSGSGTDFTLTIDPVQADDIATYYCQQSKDDPLTFGSGTKLEIK
In test [1], B1 registered an MFIr on NK cells (Ab/Iso) of 2.8. In test [2], this molecule showed an MFIr on D10.G4.1 (Ab/Iso) of 8. Also, in test [3], the % R-L blocking was 95% and the IC50 was 3.99 nM. Besides, in test [4], the MFIr (HEK OX/EV) is 50. The molecule further showed a Kd in test [5] of 0.334 nM. The molecule also yielded a Kd in test [6] of 1.32 nM.
